Test results as given in US20030143237A1 (University of California, published 2003).

What follows are binders tested against T1, HLA-A*0201 (human) (assay: off-kinetics assay on acid-stripped HLA-A*0201 LCL pulsed with peptide and b2 microglobulin, flow cytometry of surface HLA-A2 (stable if MFI at least 1.5-fold over unpulsed cells)).
T1 construct: MHC class I molecule on cells; detected by flow cytometry with anti-HLA-A2 antibody BB7.2; also called HLA-A2; A2.1
Protocol: Next, MHC-peptide complex stability was determined using an off-kinetics assay. […] Each peptide was immediately pulsed onto cells at […] for 1 hour in the presence of b2 microglobulin at 3 ug/ml at room temperature. Excess peptide was washed off and the cells were incubated at 37° C. for 0, 2, 4 and 6 hours. Cells were washed at the end of each time point and stained for cell surface HLA-A2 expression, then analyzed by flow cytometry.

Row | Relative Off kinetics | Binder
1 | 6 h | GVALQTMKQ (One of the four 'dominant' AFP peptides; synthesized by standard techniques) [hAFP542-550, residues 542-550 of SEQ ID NO:2]
2 | 4 h | FMNKFIYEI (One of the four 'dominant' AFP peptides; synthesized by standard techniques) [hAFP158-166, residues 158-166 of SEQ ID NO:2]
3 | 2 h | GLSPNLNRFL (One of the four 'dominant' AFP peptides; synthesized by standard techniques) [hAFP325-334, residues 325-334 of SEQ ID NO:2]
4 | 4 h | PLFQVPEPV (One of the four 'dominant' AFP peptides; synthesized by standard techniques) [hAFP137-145, residues 137-145 of SEQ ID NO:2]
